# According to patent US20190300590A1:
# Biological target: Rat IL-23R_huFC (rat)
# Experiment: rat ELISA vs IL-23
row,Substance,IC50 [nM]
1,Ac-Cyclo-[[Abu]-QTWQC]-[Phe[4-(2-aminoethoxy)]]-[2-Nal]-[Achc]-ENN-NH2 (peptide),< 10
2,Ac-Cyclo-[[Abu]-QTWQC]-[Phe[4-(2-aminoethoxy)]]-[2-Nal]-[Acbc]-ENN-NH2 (peptide),< 10
3,Ac-Cyclo-[[Abu]-QTWQC]-[Phe[4-(2-aminoethoxy)]]-[2-Nal]-[Acvc]-ENN-NH2 (peptide),< 10

# Biological target: IL23R_huFC (human) (UniProt Q5VWK5)
# Experiment: Human IL23R/IL23 ELISA
# Target sequence in this assay (Q5VWK5 24-353): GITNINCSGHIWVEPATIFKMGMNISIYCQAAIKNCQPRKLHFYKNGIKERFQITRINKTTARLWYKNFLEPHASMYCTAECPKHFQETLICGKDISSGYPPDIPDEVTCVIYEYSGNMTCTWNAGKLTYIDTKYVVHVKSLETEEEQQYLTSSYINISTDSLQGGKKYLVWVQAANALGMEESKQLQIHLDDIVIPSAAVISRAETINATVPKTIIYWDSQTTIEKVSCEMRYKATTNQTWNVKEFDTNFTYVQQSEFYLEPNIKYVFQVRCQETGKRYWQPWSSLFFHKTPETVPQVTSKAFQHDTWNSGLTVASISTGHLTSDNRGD
row,Substance,IC50 [nM]
1,Ac-[D-Arg]-Cyclo-[[Abu]-QTWOC]-[Phe(4-2ae)]-[2-Nal]-[THP]]-END-NH2 (peptide),1 to 10
2,Ac-Cyclo-[[Abu]-QTWQC]-[Phe(4-2ae)]-[2-Nal]-[THP]-EDN-OH (peptide),10 to 100
3,Ac-[D-Arg]-Cyclo-[[Abu]-QTWQC]-[Phe(4-2ae)]-[2-Nal]-[THP]-END-OH (peptide),10 to 100
4,Ac-[D-Arg]-Cyclo-[[Abu]-QTWEC]-[Phe(4-2ae)]-[2-Nal]-[THP]-EDN-NH2 (peptide),10 to 100
5,Ac-[D-Arg]-Cyclo-[[Abu]-ETWQC]-[Phe(4-2ae)]-[2-Nal]-[Tetrahydropyran-A]-END-NH2 (peptide),1 to 10
6,Ac-[D-Arg]-Cyclo-[[Abu]-QTWEC]-[Phe(4-2ae)]-[2-Nal]-[THP]-ENN-NH2 (peptide),1 to 10
7,Ac-[D-Arg]-Cyclo-[[Abu]-QTWQC]-[Phe(4-2ae)]-[2-Nal]-[THP]-EDD-NH2 (peptide),10 to 100

# Results, then the substance that gave them:
row,IC50 [nM],Substance
1,10 to 100,Ac-[D-Arg]-Cyclo-[[Abu]-ETWQC]-[Phe(4-2ae)]-[2-Nal]-[THP]-EDN-NH2 (peptide)
2,1 to 10,Ac-[D-Arg]-Cyclo-[[Abu]-QTWEC]-[Phe(4-2ae)]-[2-Nal]-[THP]-END-NH2 (peptide)
3,10 to 100,Ac-[D-Arg]-Cyclo-[[Abu]-QTWQC]-[Phe(4-2ae)]-[2-Nal]-[THP]-EDN-NH2 (peptide)
4,1 to 10,Ac-[D-Arg]-Cyclo-[Abu-ETWEC]-[Phe(4-2ae)]-[2-Nal]-[THP]-ENN-NH2 (peptide)
5,1 to 10,Ac-[D-Arg]-Cyclo-[[Abu]-QTWEC]-[Phe(4-2ae)]-[2-Nal]-[THP]-ENN-OH (peptide)
6,1 to 10,Ac-[D-Arg]-Cyclo-[[Abu]-ETWQC]-[Phe(4-2ae)]-[2-Nal]-[THP]-ENN-NH2 (peptide)
7,1 to 10,Ac-[D-Arg]-Cyclo-[[Abu]ETWQC]-[Phe(4-2ae)]-[2-Nal]-[THP]-ENN-OH (peptide)

# Biological target: IL23R_huFC (human) (UniProt Q5VWK5)
# Experiment: IL23-IL23R competitive binding ELISA
# Target sequence in this assay (Q5VWK5 24-353 limits assumed): as the sequence (Q5VWK5 24-353) above
row,Substance,IC50 [nM]
1,[Ac-[Pen]-QTWQ-[Pen]-[Phe[4-(2-aminoethoxy)]-[2-Nal]-[Aib]-[Lys(Ac)]-NQ-NH2]2PEG25 (peptide),10 to 25
2,[Ac-[Pen]-QTWQ-[Pen]-[Phe[4-(2-aminoethoxy)]-[2-Nal]-[Aib]-[Lys(Ac)]-NQ-NH2]2DIG (peptide),25 to 100

# Biological target: IL-23R on human cells (IL-23R-expressing DB cells; human NK cells) (human) (UniProt Q5VWK5)
# Sequence (Q5VWK5 24-629): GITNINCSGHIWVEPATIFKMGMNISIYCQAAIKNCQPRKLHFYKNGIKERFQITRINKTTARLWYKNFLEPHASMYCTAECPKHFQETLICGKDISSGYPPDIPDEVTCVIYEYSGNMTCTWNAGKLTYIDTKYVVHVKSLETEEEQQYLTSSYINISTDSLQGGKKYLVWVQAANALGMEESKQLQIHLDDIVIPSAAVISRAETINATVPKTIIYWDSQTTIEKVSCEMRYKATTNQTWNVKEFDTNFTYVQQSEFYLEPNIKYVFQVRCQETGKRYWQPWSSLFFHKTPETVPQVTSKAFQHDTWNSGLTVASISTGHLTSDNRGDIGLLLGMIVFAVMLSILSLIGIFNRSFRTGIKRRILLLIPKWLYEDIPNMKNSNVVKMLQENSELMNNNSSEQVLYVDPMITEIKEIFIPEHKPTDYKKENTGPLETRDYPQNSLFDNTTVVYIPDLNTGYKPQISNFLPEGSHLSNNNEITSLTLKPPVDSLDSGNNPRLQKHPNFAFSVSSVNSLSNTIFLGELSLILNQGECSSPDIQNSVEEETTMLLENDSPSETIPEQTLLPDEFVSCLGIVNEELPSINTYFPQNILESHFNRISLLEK
# Experiment: cell-based or functional assay
row,Substance,pStat3 HTRF IC50 [nM]
1,Alexa488-PEG4 through [D-Arg]: [D-Arg]-Cyclo-[[Abu]-QTWQC]-[Phe(4-2ae)]-[2-Nal]-[THP]-ENN-NH2 (peptide),< 10
